What was measured:
Test in all cases: co-IP; anti-Flag M2 affinity gel on extracts of NIH3T3 cells transfected with 3xFlag Cyclin A2 alleles; endogenous partners detected by Western blot; densitometry (ImageQuantTL) normalised to immunoprecipitated Cyclin A2, percent of WT; repeated 5 times
Conditions in all cases: partners not purified
[1] = biological target: T1, Cyclin A2 L282R, C-terminally fused to 3 Flag tags (mouse, UniProt P51943 1-422, L282R)
T1 construct: Cyclin A2, mouse; cDNA obtained from NIH3T3 cells by RT-PCR; source: NIH3T3 cells, transfected, in cell extracts; not shown: 3xFlag, C-terminal, kept
T1 sequence (P51943 whole entry L282R, the tested form may be a part): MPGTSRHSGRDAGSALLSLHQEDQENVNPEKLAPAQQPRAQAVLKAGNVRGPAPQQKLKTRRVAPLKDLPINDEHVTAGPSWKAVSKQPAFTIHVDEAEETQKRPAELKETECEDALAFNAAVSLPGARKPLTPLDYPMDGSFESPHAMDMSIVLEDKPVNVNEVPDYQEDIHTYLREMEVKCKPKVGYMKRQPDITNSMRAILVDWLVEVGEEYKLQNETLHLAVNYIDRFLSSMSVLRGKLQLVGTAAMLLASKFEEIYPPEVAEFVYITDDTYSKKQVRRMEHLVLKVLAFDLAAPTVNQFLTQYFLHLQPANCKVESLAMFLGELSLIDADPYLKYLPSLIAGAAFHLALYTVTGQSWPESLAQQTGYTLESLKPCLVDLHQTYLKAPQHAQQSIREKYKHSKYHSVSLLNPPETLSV

[2] = biological target: T2, Cyclin A2 M200A, C-terminally fused to 3 Flag tags (mouse, UniProt P51943 1-422, M200A)
T2 construct: Cyclin A2, mouse; cDNA obtained from NIH3T3 cells by RT-PCR; source: NIH3T3 or HEK 293 cells, transfected, in cell extracts; not shown: 3xFlag, C-terminal, kept
T2 sequence (P51943 whole entry M200A, the tested form may be a part): as the sequence (P51943 whole entry L282R, the tested form may be a part) above, with M200A, R282L counted along it

[3] = biological target: T3, Cyclin A2 D171A, C-terminally fused to 3 Flag tags (mouse, UniProt P51943 1-422, D171A)
T3 construct: Cyclin A2, mouse; cDNA obtained from NIH3T3 cells by RT-PCR; source: NIH3T3 or HEK 293 cells, transfected, in cell extracts; not shown: 3xFlag, C-terminal, kept
T3 sequence (P51943 whole entry D171A, the tested form may be a part): as the sequence (P51943 whole entry L282R, the tested form may be a part) above, with D171A, R282L counted along it

[4] = biological target: T4, Cyclin A2 WT, C-terminally fused to 3 Flag tags (mouse, UniProt P51943 1-422)
T4 construct: Cyclin A2, mouse; cDNA obtained from NIH3T3 cells by RT-PCR; Same construct transfected into mouse NIH3T3 (assay a1) and human HEK 293 (assay a2); also called WT Cyclin A2 allele; Flag tagged WT Cyclin A2; source: NIH3T3 or HEK 293 cells, transfected, in cell extracts; not shown: 3xFlag, C-terminal, kept
T4 sequence (P51943 whole entry, the tested form may be a part): as the sequence (P51943 whole entry L282R, the tested form may be a part) above, with R282L counted along it

[5] = biological target: T5, Cyclin A2 E285A, C-terminally fused to 3 Flag tags (mouse, UniProt P51943 1-422, E285A)
T5 construct: Cyclin A2, mouse; cDNA obtained from NIH3T3 cells by RT-PCR; source: NIH3T3 cells, transfected, in cell extracts; not shown: 3xFlag, C-terminal, kept
T5 sequence (P51943 whole entry E285A, the tested form may be a part): as the sequence (P51943 whole entry L282R, the tested form may be a part) above, with R282L, E285A counted along it

[6] = biological target: T6, Cyclin A2 L204A, C-terminally fused to 3 Flag tags (mouse, UniProt P51943 1-422, L204A)
T6 construct: Cyclin A2, mouse; cDNA obtained from NIH3T3 cells by RT-PCR; source: NIH3T3 or HEK 293 cells, transfected, in cell extracts; not shown: 3xFlag, C-terminal, kept
T6 sequence (P51943 whole entry L204A, the tested form may be a part): as the sequence (P51943 whole entry L282R, the tested form may be a part) above, with L204A, R282L counted along it

[7] = biological target: T7, Cyclin A2 K256A, C-terminally fused to 3 Flag tags (mouse, UniProt P51943 1-422, K256A)
T7 construct: Cyclin A2, mouse; cDNA obtained from NIH3T3 cells by RT-PCR; source: NIH3T3 cells, transfected, in cell extracts; not shown: 3xFlag, C-terminal, kept
T7 sequence (P51943 whole entry K256A, the tested form may be a part): as the sequence (P51943 whole entry L282R, the tested form may be a part) above, with K256A, R282L counted along it

[8] = biological target: T8, Cyclin A2 E210Q, C-terminally fused to 3 Flag tags (mouse, UniProt P51943 1-422, E210Q)
T8 construct: Cyclin A2, mouse; cDNA obtained from NIH3T3 cells by RT-PCR; source: NIH3T3 cells, transfected, in cell extracts; not shown: 3xFlag, C-terminal, kept
T8 sequence (P51943 whole entry E210Q, the tested form may be a part): as the sequence (P51943 whole entry L282R, the tested form may be a part) above, with E210Q, R282L counted along it

[9] = biological target: T9, Cyclin A2 E180A, C-terminally fused to 3 Flag tags (mouse, UniProt P51943 1-422, E180A)
T9 construct: Cyclin A2, mouse; cDNA obtained from NIH3T3 cells by RT-PCR; source: NIH3T3 cells, transfected, in cell extracts; not shown: 3xFlag, C-terminal, kept
T9 sequence (P51943 whole entry E180A, the tested form may be a part): as the sequence (P51943 whole entry L282R, the tested form may be a part) above, with E180A, R282L counted along it

[10] = biological target: T10, Cyclin A2 Double (W207L, E210Q), C-terminally fused to 3 Flag tags (mouse, UniProt P51943 1-422, W207L | E210Q)
T10 construct: Cyclin A2, mouse; cDNA obtained from NIH3T3 cells by RT-PCR; also called Double mutant; source: NIH3T3 cells, transfected, in cell extracts; not shown: 3xFlag, C-terminal, kept
T10 sequence (P51943 whole entry W207L/E210Q, the tested form may be a part): as the sequence (P51943 whole entry L282R, the tested form may be a part) above, with W207L, E210Q, R282L counted along it

[11] = biological target: T11, Cyclin A2 W207A, C-terminally fused to 3 Flag tags (mouse, UniProt P51943 1-422, W207A)
T11 construct: Cyclin A2, mouse; cDNA obtained from NIH3T3 cells by RT-PCR; source: NIH3T3 or HEK 293 cells, transfected, in cell extracts; not shown: 3xFlag, C-terminal, kept
T11 sequence (P51943 whole entry W207A, the tested form may be a part): as the sequence (P51943 whole entry L282R, the tested form may be a part) above, with W207A, R282L counted along it

[12] = biological target: T12, Cyclin A2 Triple (M200A, L204A, W207A), C-terminally fused to 3 Flag tags (mouse, UniProt P51943 1-422, M200A | L204A | W207A)
T12 construct: Cyclin A2, mouse; cDNA obtained from NIH3T3 cells by RT-PCR; also called Triple mutant; source: NIH3T3 or HEK 293 cells, transfected, in cell extracts; not shown: 3xFlag, C-terminal, kept
T12 sequence (P51943 whole entry M200A/L204A/W207A, the tested form may be a part): as the sequence (P51943 whole entry L282R, the tested form may be a part) above, with M200A, L204A, W207A, R282L counted along it

| percent co-precipitated relative to WT [1] | percent co-precipitated relative to WT [2] | percent co-precipitated relative to WT [3] | percent co-precipitated relative to WT [4] | percent co-precipitated relative to WT [5] | percent co-precipitated relative to WT [6] | percent co-precipitated relative to WT [7] | percent co-precipitated relative to WT [8] | percent co-precipitated relative to WT [9] | percent co-precipitated relative to WT [10] | percent co-precipitated relative to WT [11] | percent co-precipitated relative to WT [12] | Binder |
| --- | --- | --- | --- | --- | --- | --- | --- | --- | --- | --- | --- | --- |
| 44.5% | 69.2% | 100% | 100% | 36.7% | 15.2% | 19.3% | 95.7% |  |  |  |  | p27 (endogenous, NIH3T3) (natural protein, mouse (endogenous in NIH3T3), UniProt P46414 1-197, looked up, p27, endogenous protein of mouse NIH3T3 cells, detected by Western blot; source: endogenous, NIH3T3 cell extract) MSNVRVSNGSPSLERMDARQAEHPKPSACRNLFGPVNHEELTRDLEKHCRDMEEASQRKWNFDFQNHKPLEGRYEWQEVERGSLPEFYYRPPRPPKSACKVLAQESQDVSGSRQAVPLIGSQANSEDRHLVDQMPDSSDNPAGLAEQCPGMRKRPAAEDSSSQNKRANRTEENVSDGSPNAGTVEQTPKKPGLRRQT |
| 58.6% | 79.2% | 100% | 100% | 8.6% | 65.6% | 17% | 70% | 19.6% |  |  |  | p107 (endogenous, NIH3T3) (natural protein, mouse (endogenous in NIH3T3), UniProt Q64701 1-1063, looked up, p107, endogenous protein of mouse NIH3T3 cells, detected by Western blot; source: endogenous, NIH3T3 cell extract) MFEDEPHAEGAAAVAAAREALQALCQELNLDEGSAAEALDDFTAIRGNYSLEGEVIHWLACSLYVACRKSIIPTVGKGVMEGNCVSLTRILRSAKLSLIQFFSKMKKWMDMSNLPQEFRERIERLERNFEVSTVIFKKFEPIFLDIFQNPYEEPPKLPRSRKQRRIPCSVKDLFNFCWTLFVYTKGNFRMIGDDLVNSYHLLLCCLDLIFANAIMCPNRRDLLNPSFKGLPSDFHAPDFKAAEEPPCIIAVLCDLHDGLLVEAKGIKEHYFKPYISKLFDKKILKGECLLDLSSFTDNSKAVNKEYEEYVLTVGDFDERIFLGADAEEEIGTPRKFTADTPFGKLTSQASVECNLQQHFEKKRSFAPSTPLTGRRYLQEKEAVTTPVASATQSVSRLQSIVAGLKSAPSEQLLNIFESCMRNPMGNIIKIVKGIGETFCQHYTQSTDKQPGSHIDFAVNRLKLAEILYYKILETIMVQETRRLHGMDMSVLLEQDIFHKSLMACCLEIVLFAYSSPRTFPWIIEVLDLQPFYFYKVIEVVIRSEEGLSRDMVKHLNSIEEQILESLAWTNNSALWEALHASANRVPSCEEVIFPNNFEIGNGGNVQGHLPMMPMSPIIHPRVKEVRTDSGSLRQDMQPLSPISVHERYSSPAAGSAKRRLFGDDPPKDTLMDKIMAEGTKLKIAPSSVTAESLSISPGQALLTMATTTVTGTTGRKVTVPLHGIANDAGEITLVPISMNPTQESTAESPVSLTAQSLIGTSPKQTHLTKAQDAHLTGVSKPKRTGSLALFYRKVYHLASVRLRDLCLKLDVSNELRRKIWTCFEFTLVHCPDLMKDRHLDQLLLCAFYIMAKVTKEERTFQEIMKSYRNQPQANSHVYRSVLLKSIPGGVVVYNGDCEMTDGDIEDATKTPNCSSEPVKEERGDLIKFYNTVYVGRVKSFALKYDLSNQDHIMDAPPLSPFPHIKQQPGSPRRISQQHSLYVSPHKNGAGLTPRSALLYKFNGSPSKSLKDINNMIRQGEQKTKKRVIAISGDADSPAKRLCQENDDVLLKRLQDVVSERANH |
| 65.7% | 100% | 100% | 100% | 78.2% | 100% | 41.9% | 60.2% | 11.7% | 8.2% | 79.2% |  | p21 (endogenous, NIH3T3) (natural protein, mouse (endogenous in NIH3T3), UniProt P39689 1-159, looked up, p21, endogenous protein of mouse NIH3T3 cells, detected by Western blot; source: endogenous, NIH3T3 cell extract) MSNPGDVRPVPHRSKVCRCLFGPVDSEQLRRDCDALMAGCLQEARERWNFDFVTETPLEGNFVWERVRSLGLPKVYLSPGSRSRDDLGGDKRPSTSSALLQGPAPEDHVALSLSCTLVSERPEDSPGGPGTSQGRKRRQTSLTDFYHSKRRLVFCKRKP |
| 19.8% | 72.8% | 100% | 100% | 4.7% | 57.2% | 3.8% | 45.3% |  | 9.2% | 15.3% | 0.4% | CDK1 (endogenous, NIH3T3) (enzyme, CDK1, endogenous protein of mouse NIH3T3 cells, detected by Western blot; source: endogenous, NIH3T3 cell extract) not shown |
